Source: patent EP4813396A2 (Amphivena Therapeutics, Inc., dated 2026)

What was measured:
human CD3 on T cells [1] = biological target: T1, human CD3 on T cells (human, UniProt P07766 23-207); assay: cell-based or functional assay
human CD33 on cells [2] = biological target: T2, human CD33 on cells (human, UniProt P20138 18-364); assay: flow cytometry, HL-60 cells
T2 construct: whole, on cells; also called huCD33

human CD3 on T cells [3] = biological target: T1, human CD3 on T cells; assay: flow cytometry, human T-cells (as headed in Table 10)
human CD3 on T cells [4] = biological target: T1, human CD3 on T cells; assay: flow cytometry, titration on human CD3+ T cells (Jurkat per paragraph 124/paragraph 125)
[5] = biological target: cynomolgus CD33 on CHO cells (cynomolgus monkey); assay: flow cytometry; KD on CHO-cynomolgus CD33 cells divided by KD on CHO-human CD33 cells
human CD33 on cells [6] = biological target: T2, human CD33 on cells; assay: flow cytometry, titration on HL-60 cells
human CD33 on cells [7] = biological target: T2, human CD33 on cells; assay: cell-based or functional assay
human CD33 on cells [8] = biological target: T2, human CD33 on cells; assay: flow cytometry, titration on KG-1 cells
human CD33 on cells [9] = biological target: T2, human CD33 on cells; assay: flow cytometry, titration on U-937 cells

T2 sequence (P20138 18-364): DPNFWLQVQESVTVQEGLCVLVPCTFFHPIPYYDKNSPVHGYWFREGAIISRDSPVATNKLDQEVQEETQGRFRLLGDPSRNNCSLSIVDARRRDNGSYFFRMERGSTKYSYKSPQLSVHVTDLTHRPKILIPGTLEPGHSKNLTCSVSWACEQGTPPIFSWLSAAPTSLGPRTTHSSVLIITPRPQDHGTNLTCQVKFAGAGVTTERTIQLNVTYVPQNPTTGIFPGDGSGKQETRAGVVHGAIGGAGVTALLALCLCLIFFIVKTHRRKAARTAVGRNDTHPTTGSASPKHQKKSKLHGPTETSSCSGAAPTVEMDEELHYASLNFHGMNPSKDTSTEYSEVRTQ
T1 sequence (P07766 23-207): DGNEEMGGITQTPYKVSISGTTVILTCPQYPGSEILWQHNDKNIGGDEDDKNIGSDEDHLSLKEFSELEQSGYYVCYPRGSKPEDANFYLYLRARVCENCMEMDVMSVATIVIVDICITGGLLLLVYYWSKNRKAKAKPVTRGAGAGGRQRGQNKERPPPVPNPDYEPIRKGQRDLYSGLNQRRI

CD25 Induction EC50 (pM) (human CD3 on T cells [1])	CD69 Induction EC50 (pM) (human CD3 on T cells [1])	T cell Proliferation in PBMC EC50 (pM) (human CD3 on T cells [1])	Kd (human CD33 on cells [2]) [nM]	Kd (human CD3 on T cells [3]) [nM]	Kd (human CD3 on T cells [4]) [nM]	KD ratio cynoCD33/ huCD33 [5]	Kd (human CD33 on cells [6]) [nM]	Kd (human CD33 on cells [8]) [nM]	Kd (human CD33 on cells [9]) [nM]	Binder	EC50 on HL-60 [pM] (cytotoxicity) (human CD33 on cells [7])
41	17	37	0.4	97.2	97.2	1.9	0.4	1	5.1	CD33/CD3 tandem diabody 23 (bispecific antibody, Non-covalent homodimer; domain order 1; also called TandAb 23) DIQMTQSPSSLSASVGDRVTITCRSSTGAVTTSNYANWVQQKPGKAPKGLIGGTNKRAPGVPSRFSGSLIGTDFTLTISSLQPEDFATYYCALWYSNLWVFGQGTKVEIKGGSGGSQVQLVQSGAEVKKPGSSVKVSCKASGGTFSSYGISWVRQAPGQGLEWMGGIIPIFGSAHYAQKFQGRVTITADESTSTAYMELSSLRSEDTAVYYCAREYYYDSSEWAFDIWGQGTLVTVSSGGSGQSVLTQPPSASGTPGQRVTISCSGSSSNIGSNTVKWYQQLPGTAPKLLIYSNNQRSSGVPDRFSGSKSGSSASLAISGLQSEDEADYYCAAWDDSLNGYVFGGGTKLTVLGGSGGSEVQLVESGGGLVQPGGSLRLSCAASGFTFSTYAMNWVRQAPGKGLEWVGRIRSKYNNYATYYADSVKDRFTISRDDSKNSLYLQMNSLKTEDTAVYYCARHGNFGNSYVSWFAYWGQGTLVTVSS	2.8
	57	264	5.6	2.3	2.3	1.8	5.6	12.4	39.5	CD33/CD3 tandem diabody 24 (bispecific antibody, Non-covalent homodimer; domain order 1; also called TandAb 24) DIQMTQSPSSLSASVGDRVTITCRSSTGAVTTSNYANWVQQKPGKAPKALIGGTNKRAPGVPSRFSGSLIGDKATLTISSLQPEDFATYYCALWYSNLWVFGQGTKVEIKGGSGGSQVQLVQSGAEVKKPGSSVKVSCKASGGTFDSYAISWVRQAPGQGLEWMGGIIPIFGSAHYSQKFQGRVTITADESTSTAYMELSSLRSEDTAVYYCAREYYYDSSEWAFDIWGQGTLVTVSSGGSGQSVLTQPPSASGTPGQRVTISCSGSSSNIGDNVVNWYQQLPGTAPKLLIYSTNKRPSGVPDRFSGSKSGSSASLAISGLQSEDEADYYCAAWDDSLSAYVFGGGTKLTVLGGSGGSEVQLVESGGGLVQPGGSLRLSCAASGFTFSTYAMNWVRQAPGKGLEWVGRIRSKYNNYATYYADSVKDRFTISRDDSKNSLYLQMNSLKTEDTAVYYCARHGNFGNSYVSYFAYWGQGTLVTVSSAAAGSHHHHHH	9.6
116	74	74	1	69.5	69.5	0.8	1	1.2	6.2	CD33/CD3 tandem diabody 05 (bispecific antibody, Non-covalent homodimer; domain order 1; also called TandAb 05; tandem diabody 5) DIQMTQSPSSLSASVGDRVTITCRSSTGAVTTSNYANWVQQKPGKAPKGLIGGTNKRAPGVPARFSGSGSGTDFTLTISSLQPEDFATYYCALWYSNLWVFGQGTKVEIKGGSGGSQVQLVQSGAEVKKPGASVKVSCKASGYTFTSYDINWVRQAPGQGLEWMGWMNPNSGNTGFAQKFQGRVTMTRDTSTSTVYMELSSLRSEDTAVYYCARDRANTDYSFGMDVWGQGTLVTVSSGGSGGQSVLTQPPSASGTPGQRVTISCSGSRSNIGSNTVNWYQQLPGTAPKLLIYGNNQRPSGVPDRFSGSKSGTSASLAISGLQSEDEADYYCATWDDSLIGWVFGGGTKLTVLGGSGGSEVQLVESGGGLVQPGGSLRLSCAASGFTFSTYAMNWVRQAPGKGLEWVGRIRSKYNNYATYYADSVKDRFTISRDDSKNSLYLQMNSLKTEDTAVYYCARHGNFGNSYVSWFAYWGQGTLVTVSSAAAGSHHHHHH	2.7
39	21	48	0.4	86.3	86.3	0.8	0.4	0.5	1.6	CD33/CD3 tandem diabody 06 (bispecific antibody, Non-covalent homodimer; domain order 1; also called TandAb 06; tandem diabody 6) DIQMTQSPSSLSASVGDRVTITCRSSTGAVTTSNYANWVQQKPGKAPKGLIGGTNKRAPGVPARFSGSGSGTDFTLTISSLQPEDFATYYCALWYSNLWVFGQGTKVEIKGGSGGSQVQLVQSGAEVKKPGASVKVSCKASGYTFTSYDINWVRQAPGQGLEWMGWMNPNSGNTGFAQKFQGRVTMTRDTSTSTVYMELSSLRSEDTAVYYCARDRANTDYSLGMDVWGQGTLVTVSSGGSGGQSVLTQPPSASGTPGQRVTISCSGSRSNIGSNTVNWYQQLPGTAPKLLIYGNNQRPSGVPDRFSGSKSGTSASLAISGLQSEDEADYYCATWDDSLIGWVFGGGTKLTVLGGSGGSEVQLVESGGGLVQPGGSLRLSCAASGFTFSTYAMNWVRQAPGKGLEWVGRIRSKYNNYATYYADSVKDRFTISRDDSKNSLYLQMNSLKTEDTAVYYCARHGNFGNSYVSWFAYWGQGTLVTVSSAAAGSHHHHHH	1.6
134	65	50	13.7	49.7	49.7	45.8	13.7	47.9	47.1	CD33/CD3 tandem diabody 07 (bispecific antibody, Non-covalent homodimer; domain order 1; also called TandAb 07; tandem diabody 7) DIQMTQSPSSLSASVGDRVTITCRSSTGAVTTSNYANWVQQKPGKAPKALIGGTNKRAPGVPSRFSGSLIGDKATLTISSLQPEDFATYYCALWYSNLWVFGQGTKVEIKGGSGGSQVQLQESGGGVVQPGRSLRLSCAASGFSFSNYGIHWVRQAPGKGLEWVALISYDGNKKFYADSVKGRFAISRDTSKNTVDLQMTSLRPEDTAVYYCAKDRLESAAFDYWGQGTLVTVSSGGSGGSSYELTQPPSVSVAPGQTAMITCGGNNIGSTTVHWYQQKPGQAPVLVVYDDNERPSGIPERFSGSNSGSTATLTINRVEAGDEADYYCQVWDSGSDHVVFGGGTKLTVLGGSGGSEVQLVESGGGLVQPGGSLRLSCAASGFTFSTYAMNWVRQAPGKGLEWVGRIRSKYNNYATYYADSVKDRFTISRDDSKNSLYLQMNSLKTEDTAVYYCARHGNFGNSYVSYFAYWGQGTLVTVSSAAAGSHHHHHH	17.8
30	22	23	0.2	55.7	55.7	1.6	0.2	0.3	0.5	CD33/CD3 tandem diabody 13 (bispecific antibody, Non-covalent homodimer; domain order 1; also called TandAb 13) DIQMTQSPSSLSASVGDRVTITCRSSTGAVTTSNYANWVQQKPGKAPKGLIGGTNKRAPGVPSRFSGSLIGTDFTLTISSLQPEDFATYYCALWYSNLWVFGQGTKVEIKGGSGGSQVQLVQSGAEVKKPGASVKVSCKASGYTFTSYDINWVRQAPGQGLEWMGWMNPNSGNTGFAQKFQGRVTMTRDTSTSTVYMELSSLRSEDTAVYYCARDRAVTDYYYGMDVWGQGTLVTVSSGGSGQSVLTQPPSASGTPGQRVTISCSGSRSNIGSNTVNWYQQLPGTAPKLLIYGNNQRPSGVPDRFSGSKSGTSASLAISGLQSEDEADYYCATWDDSLIGWVFGGGTKLTVLGGSGGSEVQLVESGGGLVQPGGSLRLSCAASGFTFSTYAMNWVRQAPGKGLEWVGRIRSKYNNYATYYADSVKDRFTISRDDSKNSLYLQMNSLKTEDTAVYYCARHGNFGNSYVSWFAYWGQGTLVTVSS	1.1
